Legend:
[1] = biological target: 17 isolates from rounds 2-5 of screening exhibiting the Asp-Arg motif before the scissile bond (P2-P1)
[2] = biological target: T1, … (negative control test peptide)
T1 chain: AVLSNVMFI

DINDDRSLF = biological target: T2, DINDDRSLF
T2 chain: DINDDRSLF

GDDDDK-β-naphthylamine = biological target: T3, GDDDDK-β-naphthylamine
T3 chain: GDDDDK

[3] = biological target: T4, GDDDDKIYV (positive control test peptide)
T4 chain: GDDDDKIYV

GNYTDRMFI = biological target: T5, GNYTDRMFI
T5 chain: GNYTDRMFI

GNYTDRRFI = biological target: T6, GNYTDRRFI
T6 chain: GNYTDRRFI

GNYTDRYFI = biological target: T7, GNYTDRYFI
T7 chain: GNYTDRYFI

NKAKDRMFI = biological target: T8, NKAKDRMFI
T8 chain: NKAKDRMFI

[4] = biological target: T9, phage isolate 5-A08 display polypeptide
T9 chain: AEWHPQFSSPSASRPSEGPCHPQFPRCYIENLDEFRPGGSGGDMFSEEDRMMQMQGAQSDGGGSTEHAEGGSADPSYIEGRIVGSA

[5] = biological target: T10, phage isolate 5-B05 display polypeptide
T10 chain: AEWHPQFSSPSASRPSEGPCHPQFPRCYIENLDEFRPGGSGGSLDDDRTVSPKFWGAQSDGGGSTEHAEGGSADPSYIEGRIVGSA

[6] = biological target: T11, phage isolate 5-H04 display polypeptide
T11 chain: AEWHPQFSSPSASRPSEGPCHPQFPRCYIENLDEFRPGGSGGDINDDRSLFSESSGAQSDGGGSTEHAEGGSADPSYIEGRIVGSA

[7] = biological target: T12, phage isolate 5-H11 display polypeptide
T12 chain: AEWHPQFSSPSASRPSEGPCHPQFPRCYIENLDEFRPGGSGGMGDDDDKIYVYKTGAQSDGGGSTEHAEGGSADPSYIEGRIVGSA

B1: recombinant light chain enterokinase (Novagen, Madison, Wis.) (protein)
chain: IVGGSDSREGAWPWVVALYFDDQQVCGASLVSRDWLVSAAHCVYGRNMEPSKWKAVLGLHMASNLTSPQIETRLIDQIVINPHYNKRRKNNDIAMMHLEMKVNYTDYIQPICLPEENQVFPPGRICSIAGWGALIYQGSTADVLQEADVPLLSNEKCQQQMPEYNITENMVCAGYEAGGVDSCQGDSGGPLMCQENNRWLLAGVTSFGYQCALPNRPGVYARVPRFTEWIQSFLH
cleavage at 300 nM enterokinase (phage ELISA) [1]: All of the phage isolates were readily cleaved when the enterokinase concentration was raised to 300 nM | enterokinase cleavage (HPLC, mass spectroscopy) [2]: No cleavage occurred with the negative control peptide (SEQ ID NO:198) | Cleavage Rate (DINDDRSLF): 1.43 nmol/min | rate relative to standard substrate (DINDDRSLF): 3.1 | ratio (Va/Vb) against reference peptide GDDDDK-βNA (relative kcat/Km) (DINDDRSLF): 30 | Cleavage Rate (GDDDDK-β-naphthylamine): 0.46 nmol/min | rate relative to standard substrate (GDDDDK-β-naphthylamine): 1 | Cleavage Rate [3]: 0.34 nmol/min | rate relative to standard substrate [3]: 0.7 | ratio (Va/Vb) against reference peptide GDDDDK-βNA (relative kcat/Km) [3]: 1 | Cleavage Rate (GNYTDRMFI): 0.81 nmol/min | rate relative to standard substrate (GNYTDRMFI): 1.8 | ratio (Va/Vb) against reference peptide GDDDDK-βNA (relative kcat/Km) (GNYTDRMFI): 3.5 | Cleavage Rate (GNYTDRRFI): 0.18 nmol/min | rate relative to standard substrate (GNYTDRRFI): 0.4 | Cleavage Rate (GNYTDRYFI): 0.24 nmol/min | rate relative to standard substrate (GNYTDRYFI): 0.5 | Cleavage Rate (NKAKDRMFI): 0.26 nmol/min | rate relative to standard substrate (NKAKDRMFI): 0.6 | enterokinase cleavage rate (phage ELISA, release from streptavidin) [4]: the cleavage rate for ... 5-H11 (SEQ ID NO:194) was slower than for at least three of the other isolates, i.e., 5-A08 (SEQ ID NO:137), 5-B05 (SEQ ID NO:145) and 5-H04 (SEQ ID NO:188) | enterokinase cleavage rate (phage ELISA, release from streptavidin) [5]: the cleavage rate for ... 5-H11 (SEQ ID NO:194) was slower than for at least three of the other isolates, i.e., 5-A08 (SEQ ID NO:137), 5-B05 (SEQ ID NO:145) and 5-H04 (SEQ ID NO:188) | enterokinase cleavage rate (phage ELISA, release from streptavidin) [6]: isolate 5-H04 (SEQ ID NO:188) shown in Table 5 was the most readily cut | enterokinase cleavage rate (phage ELISA, release from streptavidin) [7]: the cleavage rate for the (Asp)4-Lys-containing recognition sequence 5-H11 (SEQ ID NO:194) was slower than for at least three of the other isolates

From US20020192789
